# Bridges are numbered along the chain shown (N, C = ends). [ ]: non-standard residue; d: D form. hCys = N[C@@H](CCS)C(=O)O; Pra = C#CC[C@H](N)C(=O)O
# Molecular target: T1, Fc tagged recombinant human EGFR (rhEGFR-Fc, R&D systems, Cat#344-ER-050) (human, UniProt P00533 25-645)
# T1 construct: Bought protein; also called apo-EGFR; not shown: Fc tag
# Experiment: SPR
# Protocol: Surface plasmon resonance (SPR) binding studies were carried out on a Biacore T200 instrument (GE Healthcare). […] The contact time and resulting amount of rhEGFR-Fc capture was varied based on the nature of the analyte, namely whether it was a peptide or nanoparticle.
# Peptide binding assays were carried out in 10 mM PBS buffer supplemented with 0.05% surfactant P20 and 5% DMSO by volume, at 25° C. Peptides were injected over the rhEGFR-Fc surface for 60 s, followed by dissociation (buffer injection) for 60 s and regeneration with a 10 s pulse of 3M MgCl₂. A fresh rhEGFR-Fc surface was generated for each concentration of each peptide tested. Peptide binding data was analyzed by fitting to a 1:1 Langmuir kinetic model to obtain the on-rate (kₐ), off-rate (kd) and/or equilibrium binding constant (KD) of the interaction.
Binder,Result (affinity relative to KD of P2),KD/P2 KD
H-DPCTWEVWGRE[hCys]LQGG[Pra]G-NH2 (disulfide 3-12; SMILES C#CC[C@H](NC(=O)CNC(=O)CNC(=O)[C@H](CCC(N)=O)NC(=O)[C@H](CC(C)C)NC(=O)[C@@H]1CCSSC[C@H](NC(=O)[C@@H]2CCCN2C(=O)[C@@H](N)CC(=O)O)C(=O)N[C@@H]([C@@H](C)O)C(=O)N[C@@H](Cc2c[nH]c3ccccc23)C(=O)N[C@@H](CCC(=O)O)C(=O)N[C@@H](C(C)C)C(=O)N[C@@H](Cc2c[nH]c3ccccc23)C(=O)NCC(=O)N[C@@H](CCCNC(=N)N)C(=O)N[C@@H](CCC(=O)O)C(=O)N1)C(=O)NCC(N)=O) [P2-50],4.56 ratio,–
H-DPCTWGVWGRECLQGG[Pra]G-NH2 (disulfide 3-12; SMILES C#CC[C@H](NC(=O)CNC(=O)CNC(=O)[C@H](CCC(N)=O)NC(=O)[C@H](CC(C)C)NC(=O)[C@@H]1CSSC[C@H](NC(=O)[C@@H]2CCCN2C(=O)[C@@H](N)CC(=O)O)C(=O)N[C@@H]([C@@H](C)O)C(=O)N[C@@H](Cc2c[nH]c3ccccc23)C(=O)NCC(=O)N[C@@H](C(C)C)C(=O)N[C@@H](Cc2c[nH]c3ccccc23)C(=O)NCC(=O)N[C@@H](CCCNC(=N)N)C(=O)N[C@@H](CCC(=O)O)C(=O)N1)C(=O)NCC(N)=O) [P2-33],–,42.7 ratio
H-DPCTWEIWGRECLQGG[Pra]G-NH2 (disulfide 3-12; SMILES C#CC[C@H](NC(=O)CNC(=O)CNC(=O)[C@H](CCC(N)=O)NC(=O)[C@H](CC(C)C)NC(=O)[C@@H]1CSSC[C@H](NC(=O)[C@@H]2CCCN2C(=O)[C@@H](N)CC(=O)O)C(=O)N[C@@H]([C@@H](C)O)C(=O)N[C@@H](Cc2c[nH]c3ccccc23)C(=O)N[C@@H](CCC(=O)O)C(=O)N[C@@H]([C@@H](C)CC)C(=O)N[C@@H](Cc2c[nH]c3ccccc23)C(=O)NCC(=O)N[C@@H](CCCNC(=N)N)C(=O)N[C@@H](CCC(=O)O)C(=O)N1)C(=O)NCC(N)=O) [P2-36],–,3.48 ratio
H-DPCTWELWGRECLQGG[Pra]G-NH2 (disulfide 3-12; SMILES C#CC[C@H](NC(=O)CNC(=O)CNC(=O)[C@H](CCC(N)=O)NC(=O)[C@H](CC(C)C)NC(=O)[C@@H]1CSSC[C@H](NC(=O)[C@@H]2CCCN2C(=O)[C@@H](N)CC(=O)O)C(=O)N[C@@H]([C@@H](C)O)C(=O)N[C@@H](Cc2c[nH]c3ccccc23)C(=O)N[C@@H](CCC(=O)O)C(=O)N[C@@H](CC(C)C)C(=O)N[C@@H](Cc2c[nH]c3ccccc23)C(=O)NCC(=O)N[C@@H](CCCNC(=N)N)C(=O)N[C@@H](CCC(=O)O)C(=O)N1)C(=O)NCC(N)=O) [P2-37],–,10.1 ratio
H-DPCVWEVWGRECLQGG[Pra]G-NH2 (disulfide 3-12; SMILES C#CC[C@H](NC(=O)CNC(=O)CNC(=O)[C@H](CCC(N)=O)NC(=O)[C@H](CC(C)C)NC(=O)[C@@H]1CSSC[C@H](NC(=O)[C@@H]2CCCN2C(=O)[C@@H](N)CC(=O)O)C(=O)N[C@@H](C(C)C)C(=O)N[C@@H](Cc2c[nH]c3ccccc23)C(=O)N[C@@H](CCC(=O)O)C(=O)N[C@@H](C(C)C)C(=O)N[C@@H](Cc2c[nH]c3ccccc23)C(=O)NCC(=O)N[C@@H](CCCNC(=N)N)C(=O)N[C@@H](CCC(=O)O)C(=O)N1)C(=O)NCC(N)=O) [P2-25],–,1.1 ratio
H-DPCTWRVWGRECLQGG[Pra]G-NH2 (disulfide 3-12; SMILES C#CC[C@H](NC(=O)CNC(=O)CNC(=O)[C@H](CCC(N)=O)NC(=O)[C@H](CC(C)C)NC(=O)[C@@H]1CSSC[C@H](NC(=O)[C@@H]2CCCN2C(=O)[C@@H](N)CC(=O)O)C(=O)N[C@@H]([C@@H](C)O)C(=O)N[C@@H](Cc2c[nH]c3ccccc23)C(=O)N[C@@H](CCCNC(=N)N)C(=O)N[C@@H](C(C)C)C(=O)N[C@@H](Cc2c[nH]c3ccccc23)C(=O)NCC(=O)N[C@@H](CCCNC(=N)N)C(=O)N[C@@H](CCC(=O)O)C(=O)N1)C(=O)NCC(N)=O) [P2-32],–,1.21 ratio
H-DPCSWEVWGRECLQGG[Pra]G-NH2 (disulfide 3-12; SMILES C#CC[C@H](NC(=O)CNC(=O)CNC(=O)[C@H](CCC(N)=O)NC(=O)[C@H](CC(C)C)NC(=O)[C@@H]1CSSC[C@H](NC(=O)[C@@H]2CCCN2C(=O)[C@@H](N)CC(=O)O)C(=O)N[C@@H](CO)C(=O)N[C@@H](Cc2c[nH]c3ccccc23)C(=O)N[C@@H](CCC(=O)O)C(=O)N[C@@H](C(C)C)C(=O)N[C@@H](Cc2c[nH]c3ccccc23)C(=O)NCC(=O)N[C@@H](CCCNC(=N)N)C(=O)N[C@@H](CCC(=O)O)C(=O)N1)C(=O)NCC(N)=O) [P2-26],–,1.68 ratio
H-DPCTFEVWGRECLQGG[Pra]G-NH2 (disulfide 3-12) [P2-29],–,9.24 ratio
"Ac-ACTWEVWGRECGG[Pra]G-NH2 (disulfide 2-11; SMILES C#CC[C@H](NC(=O)CNC(=O)CNC(=O)[C@@H]1CSSC[C@H](NC(=O)[C@H](C)NC(C)=O)C(=O)N[C@@H]([C@@H](C)O)C(=O)N[C@@H](Cc2c[nH]c3ccccc23)C(=O)N[C@@H](CCC(=O)O)C(=O)N[C@@H](C(C)C)C(=O)N[C@@H](Cc2c[nH]c3ccccc23)C(=O)NCC(=O)N[C@@H](CCCNC(=N)N)C(=O)N[C@@H](CCC(=O)O)C(=O)N1)C(=O)NCC(N)=O) [P2-20 (truncation, Table 12)]",–,3 ratio
H-DPCTWEVWGRECGG[Pra]G-NH2 (disulfide 3-12; SMILES C#CC[C@H](NC(=O)CNC(=O)CNC(=O)[C@@H]1CSSC[C@H](NC(=O)[C@@H]2CCCN2C(=O)[C@@H](N)CC(=O)O)C(=O)N[C@@H]([C@@H](C)O)C(=O)N[C@@H](Cc2c[nH]c3ccccc23)C(=O)N[C@@H](CCC(=O)O)C(=O)N[C@@H](C(C)C)C(=O)N[C@@H](Cc2c[nH]c3ccccc23)C(=O)NCC(=O)N[C@@H](CCCNC(=N)N)C(=O)N[C@@H](CCC(=O)O)C(=O)N1)C(=O)NCC(N)=O) [P2-15],–,0.9 ratio
H-DACTWEVWGRECGG[Pra]G-NH2 (disulfide 3-12; SMILES C#CC[C@H](NC(=O)CNC(=O)CNC(=O)[C@@H]1CSSC[C@H](NC(=O)[C@H](C)NC(=O)[C@@H](N)CC(=O)O)C(=O)N[C@@H]([C@@H](C)O)C(=O)N[C@@H](Cc2c[nH]c3ccccc23)C(=O)N[C@@H](CCC(=O)O)C(=O)N[C@@H](C(C)C)C(=O)N[C@@H](Cc2c[nH]c3ccccc23)C(=O)NCC(=O)N[C@@H](CCCNC(=N)N)C(=O)N[C@@H](CCC(=O)O)C(=O)N1)C(=O)NCC(N)=O) [P2-18],–,1.6 ratio
H-[Pra]CTWEVWGREC-NH2 (disulfide 2-11; SMILES C#CC[C@H](N)C(=O)N[C@H]1CSSC[C@@H](C(N)=O)NC(=O)[C@H](CCC(=O)O)NC(=O)[C@H](CCCNC(=N)N)NC(=O)CNC(=O)[C@H](Cc2c[nH]c3ccccc23)NC(=O)[C@H](C(C)C)NC(=O)[C@H](CCC(=O)O)NC(=O)[C@H](Cc2c[nH]c3ccccc23)NC(=O)[C@H]([C@@H](C)O)NC1=O) [P2-23],–,4.5 ratio
H-CTWEVWGRECGG[Pra]G-NH2 (disulfide 1-10; SMILES C#CC[C@H](NC(=O)CNC(=O)CNC(=O)[C@@H]1CSSC[C@H](N)C(=O)N[C@@H]([C@@H](C)O)C(=O)N[C@@H](Cc2c[nH]c3ccccc23)C(=O)N[C@@H](CCC(=O)O)C(=O)N[C@@H](C(C)C)C(=O)N[C@@H](Cc2c[nH]c3ccccc23)C(=O)NCC(=O)N[C@@H](CCCNC(=N)N)C(=O)N[C@@H](CCC(=O)O)C(=O)N1)C(=O)NCC(N)=O) [P2-17],–,0.4 ratio
H-[Pra]ACTWEVWGREC-NH2 (disulfide 3-12; SMILES C#CC[C@H](N)C(=O)N[C@@H](C)C(=O)N[C@H]1CSSC[C@@H](C(N)=O)NC(=O)[C@H](CCC(=O)O)NC(=O)[C@H](CCCNC(=N)N)NC(=O)CNC(=O)[C@H](Cc2c[nH]c3ccccc23)NC(=O)[C@H](C(C)C)NC(=O)[C@H](CCC(=O)O)NC(=O)[C@H](Cc2c[nH]c3ccccc23)NC(=O)[C@H]([C@@H](C)O)NC1=O) [P2-21],–,6.7 ratio
H-ACTWEVWGRECGG[Pra]G-NH2 (disulfide 2-11; SMILES C#CC[C@H](NC(=O)CNC(=O)CNC(=O)[C@@H]1CSSC[C@H](NC(=O)[C@H](C)N)C(=O)N[C@@H]([C@@H](C)O)C(=O)N[C@@H](Cc2c[nH]c3ccccc23)C(=O)N[C@@H](CCC(=O)O)C(=O)N[C@@H](C(C)C)C(=O)N[C@@H](Cc2c[nH]c3ccccc23)C(=O)NCC(=O)N[C@@H](CCCNC(=N)N)C(=O)N[C@@H](CCC(=O)O)C(=O)N1)C(=O)NCC(N)=O) [P2-19],–,2.4 ratio
H-CTWEVWGRECLQGG[Pra]G-NH2 (disulfide 1-10; SMILES C#CC[C@H](NC(=O)CNC(=O)CNC(=O)[C@H](CCC(N)=O)NC(=O)[C@H](CC(C)C)NC(=O)[C@@H]1CSSC[C@H](N)C(=O)N[C@@H]([C@@H](C)O)C(=O)N[C@@H](Cc2c[nH]c3ccccc23)C(=O)N[C@@H](CCC(=O)O)C(=O)N[C@@H](C(C)C)C(=O)N[C@@H](Cc2c[nH]c3ccccc23)C(=O)NCC(=O)N[C@@H](CCCNC(=N)N)C(=O)N[C@@H](CCC(=O)O)C(=O)N1)C(=O)NCC(N)=O) [P2-16],–,2 ratio
